Test [1] deals with MUC1 peptide-biotin (cat#353951, American Peptide Company). Kind of test: ELISA at 2 ug/ml mAb, MUC1 peptide-biotin on NeutrAvidin; PBS background 0.08. (In general: In an ELISA, binding on a coated surface is turned into a signal by an enzyme label.)
For test [2] the target is unchanged. Kind of test: ELISA at 2 ug/ml mAb (IgM), MUC1 peptide-biotin on NeutrAvidin; PBS background 0.12.

For two molecules, ELISA signal (unit not given) results are on record in patent US20150353645A1.

B1: human anti-GD2 monoclonal antibody 31F9 (antibody, human IgG1, V domains shown)
VH: QVQLLESGAEVKKPGASVKVSCEASGYTFTSSDINWVRQATGQGLEWMGWMNPNSGNTGYAQKFQGRVTMTRNTSISTAYMELSSLRSEDTAVYYCARERPRRRGGGFDIWGQGTMVTVSS
VL: DIRMTQSPSSLSASVGDRVTITCRASQGISNYLAWYQQKPGKVPKFLIYAASTLQSGVPSRFSGSGSGTDFTLTISSLQPEDVATYYCQKYNSAPWTFGQGTKVEIK
B1: the ELISA signal (unit not given) in test [1] was 0.08.

B2: human anti-GD2 monoclonal antibody 2E12 (antibody, human IgM, V domains shown)
VH: QVQLLESGAEVKKPGASVKVSCKASGYTFTSYAMHWVRQAPGQRLEWMGWINAGNGNTIYSQKFQARVTITRDTSASTAYMELSSLRSEDTAVYYCARWVGGVASYFDYWGQGTLVTVSS
VL: EIVLTQSPLSLSVTPGEPASISCRSSQSLLHRNGYNYFDWYLQQPGQSPQLLIYLGSNRASGVPDRFSGSGSGTDFTLKISRVEAEDVGVYYCMQALQTPYTFGQGTKLEIK
For the molecule B2, the ELISA signal (unit not given) in test [2] turned out to be 0.09.
